This passage reports percent of applied 67B89 recovered from the 92787 resin results from paper PMC3961674.

This experiment deals with variant 92787 (77405 N-terminally fused to wild-type ubiquitin carrying an S57C substitution) (human) (UniProt P0CG48). The experiment is described as follows: affinity chromatography; 92787 coupled to SulfoLink resin (1 ml columns); 200 μg of 67B89 spiked into 2 ml of PBS, NHDF cell lysate or serum, washed with PBS pH 7.4, eluted with PBS pH 2.2; fractions on SDS-PAGE.

Chain of 67B89 (ED-B domain of fibronectin flanked by its N-terminal domains 6 and 7 and C-terminal domains 8 and 9) (P02751 1080-1541): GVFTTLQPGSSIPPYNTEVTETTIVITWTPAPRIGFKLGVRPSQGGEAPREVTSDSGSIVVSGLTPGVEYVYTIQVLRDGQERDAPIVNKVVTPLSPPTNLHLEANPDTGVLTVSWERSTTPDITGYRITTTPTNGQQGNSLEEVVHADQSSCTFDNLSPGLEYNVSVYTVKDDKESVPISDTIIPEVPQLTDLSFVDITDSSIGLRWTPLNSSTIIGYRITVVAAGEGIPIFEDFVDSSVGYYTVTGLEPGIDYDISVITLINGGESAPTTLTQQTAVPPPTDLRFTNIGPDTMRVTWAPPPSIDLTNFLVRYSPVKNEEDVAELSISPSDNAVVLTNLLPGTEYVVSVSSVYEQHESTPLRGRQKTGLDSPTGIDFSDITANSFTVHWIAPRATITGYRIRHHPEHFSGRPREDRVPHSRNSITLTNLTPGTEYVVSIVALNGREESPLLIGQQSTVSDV

“67B89 (ED-B domain of fibronectin flanked by its N-terminal domains 6 and 7 and C-terminal domains 8 and 9) (from UniProt P02751-7 1080-1541) (domain or fragment)” came in with a percent of applied 67B89 recovered from the 92787 resin of more than 85%.
